Series [1] deals with recombinant fusion protein of Medaka gelatinase A.
Series [2] concerns the target T1, human high-molecular-weight (HMW) kininogen, P01042.
T1 chain: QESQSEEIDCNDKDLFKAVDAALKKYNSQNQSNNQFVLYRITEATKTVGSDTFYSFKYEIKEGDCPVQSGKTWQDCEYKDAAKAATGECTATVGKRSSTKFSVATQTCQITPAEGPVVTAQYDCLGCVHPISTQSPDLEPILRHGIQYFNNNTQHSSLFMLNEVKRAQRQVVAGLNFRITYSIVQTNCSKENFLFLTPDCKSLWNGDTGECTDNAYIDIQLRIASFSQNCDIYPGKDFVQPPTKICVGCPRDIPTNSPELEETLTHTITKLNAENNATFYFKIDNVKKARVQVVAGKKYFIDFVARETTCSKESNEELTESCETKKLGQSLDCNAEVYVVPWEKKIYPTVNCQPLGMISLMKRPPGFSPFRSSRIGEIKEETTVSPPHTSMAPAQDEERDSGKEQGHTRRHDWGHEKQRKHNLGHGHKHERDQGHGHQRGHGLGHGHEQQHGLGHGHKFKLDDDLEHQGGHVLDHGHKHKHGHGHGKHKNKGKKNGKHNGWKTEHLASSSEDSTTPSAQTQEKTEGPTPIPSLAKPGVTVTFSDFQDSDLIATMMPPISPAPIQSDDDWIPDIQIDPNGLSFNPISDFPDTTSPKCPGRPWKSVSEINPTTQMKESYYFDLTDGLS

The target in a further series is T2, human fibrinogen, P02671.
T2 chain 1: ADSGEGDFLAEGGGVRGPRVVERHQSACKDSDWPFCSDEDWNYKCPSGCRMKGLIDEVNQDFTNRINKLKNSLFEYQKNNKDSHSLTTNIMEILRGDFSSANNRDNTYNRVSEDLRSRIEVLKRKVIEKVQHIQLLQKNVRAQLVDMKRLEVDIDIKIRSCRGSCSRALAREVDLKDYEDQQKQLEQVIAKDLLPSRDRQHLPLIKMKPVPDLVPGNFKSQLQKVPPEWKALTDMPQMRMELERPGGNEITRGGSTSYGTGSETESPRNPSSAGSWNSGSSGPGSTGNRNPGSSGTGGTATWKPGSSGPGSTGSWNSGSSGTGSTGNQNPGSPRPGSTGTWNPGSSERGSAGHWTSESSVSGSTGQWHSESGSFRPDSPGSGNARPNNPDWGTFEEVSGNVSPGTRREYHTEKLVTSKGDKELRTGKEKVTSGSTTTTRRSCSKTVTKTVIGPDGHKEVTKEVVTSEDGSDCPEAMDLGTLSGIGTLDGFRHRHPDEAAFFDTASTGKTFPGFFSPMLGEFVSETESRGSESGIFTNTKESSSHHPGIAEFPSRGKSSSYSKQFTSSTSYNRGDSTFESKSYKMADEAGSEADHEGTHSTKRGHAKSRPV
T2 chain 2: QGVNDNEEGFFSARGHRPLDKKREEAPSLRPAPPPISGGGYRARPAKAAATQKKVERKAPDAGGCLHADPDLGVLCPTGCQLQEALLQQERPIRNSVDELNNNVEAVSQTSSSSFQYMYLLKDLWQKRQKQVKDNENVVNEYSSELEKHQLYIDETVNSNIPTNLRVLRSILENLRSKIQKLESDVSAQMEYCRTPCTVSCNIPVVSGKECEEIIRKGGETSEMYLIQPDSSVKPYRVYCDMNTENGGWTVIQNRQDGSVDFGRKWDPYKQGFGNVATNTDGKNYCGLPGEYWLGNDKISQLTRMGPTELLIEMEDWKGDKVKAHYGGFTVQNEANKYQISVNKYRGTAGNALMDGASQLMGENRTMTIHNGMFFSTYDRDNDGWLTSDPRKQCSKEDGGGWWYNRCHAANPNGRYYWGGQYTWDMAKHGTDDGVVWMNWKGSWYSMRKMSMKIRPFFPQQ
T2 chain 3: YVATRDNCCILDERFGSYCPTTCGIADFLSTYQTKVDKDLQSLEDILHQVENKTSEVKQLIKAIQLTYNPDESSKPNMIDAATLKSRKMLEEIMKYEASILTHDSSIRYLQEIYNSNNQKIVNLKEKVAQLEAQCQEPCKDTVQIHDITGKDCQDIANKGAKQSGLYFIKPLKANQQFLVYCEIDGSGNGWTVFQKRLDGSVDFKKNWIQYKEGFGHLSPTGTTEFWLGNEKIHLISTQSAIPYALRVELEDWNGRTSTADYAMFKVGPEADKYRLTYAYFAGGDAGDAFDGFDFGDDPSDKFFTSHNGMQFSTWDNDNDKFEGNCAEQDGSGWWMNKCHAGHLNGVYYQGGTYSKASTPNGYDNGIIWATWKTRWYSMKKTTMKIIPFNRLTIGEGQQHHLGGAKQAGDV

Series [3] addresses D4K-cleavage site-containing control protein (Novagen).
A further series deals with T3, Z-Phe-Arg-MCA.
T3 chain: FR

Series [4] has as its target human single-chain tPA fusion protein with N-terminal His-tag/EP-cleavage site, P00750.
In series [5] the target is T4, Gly-Asp-Asp-Asp-Asp-Lys-β-naphthylamide.
T4 chain: GDDDDK

For series [6], the target named is Human plasma fibronectin, P02751.
Sequence of Human plasma fibronectin, P02751 (P02751 other isoform, or with tags, fused parts or gaps): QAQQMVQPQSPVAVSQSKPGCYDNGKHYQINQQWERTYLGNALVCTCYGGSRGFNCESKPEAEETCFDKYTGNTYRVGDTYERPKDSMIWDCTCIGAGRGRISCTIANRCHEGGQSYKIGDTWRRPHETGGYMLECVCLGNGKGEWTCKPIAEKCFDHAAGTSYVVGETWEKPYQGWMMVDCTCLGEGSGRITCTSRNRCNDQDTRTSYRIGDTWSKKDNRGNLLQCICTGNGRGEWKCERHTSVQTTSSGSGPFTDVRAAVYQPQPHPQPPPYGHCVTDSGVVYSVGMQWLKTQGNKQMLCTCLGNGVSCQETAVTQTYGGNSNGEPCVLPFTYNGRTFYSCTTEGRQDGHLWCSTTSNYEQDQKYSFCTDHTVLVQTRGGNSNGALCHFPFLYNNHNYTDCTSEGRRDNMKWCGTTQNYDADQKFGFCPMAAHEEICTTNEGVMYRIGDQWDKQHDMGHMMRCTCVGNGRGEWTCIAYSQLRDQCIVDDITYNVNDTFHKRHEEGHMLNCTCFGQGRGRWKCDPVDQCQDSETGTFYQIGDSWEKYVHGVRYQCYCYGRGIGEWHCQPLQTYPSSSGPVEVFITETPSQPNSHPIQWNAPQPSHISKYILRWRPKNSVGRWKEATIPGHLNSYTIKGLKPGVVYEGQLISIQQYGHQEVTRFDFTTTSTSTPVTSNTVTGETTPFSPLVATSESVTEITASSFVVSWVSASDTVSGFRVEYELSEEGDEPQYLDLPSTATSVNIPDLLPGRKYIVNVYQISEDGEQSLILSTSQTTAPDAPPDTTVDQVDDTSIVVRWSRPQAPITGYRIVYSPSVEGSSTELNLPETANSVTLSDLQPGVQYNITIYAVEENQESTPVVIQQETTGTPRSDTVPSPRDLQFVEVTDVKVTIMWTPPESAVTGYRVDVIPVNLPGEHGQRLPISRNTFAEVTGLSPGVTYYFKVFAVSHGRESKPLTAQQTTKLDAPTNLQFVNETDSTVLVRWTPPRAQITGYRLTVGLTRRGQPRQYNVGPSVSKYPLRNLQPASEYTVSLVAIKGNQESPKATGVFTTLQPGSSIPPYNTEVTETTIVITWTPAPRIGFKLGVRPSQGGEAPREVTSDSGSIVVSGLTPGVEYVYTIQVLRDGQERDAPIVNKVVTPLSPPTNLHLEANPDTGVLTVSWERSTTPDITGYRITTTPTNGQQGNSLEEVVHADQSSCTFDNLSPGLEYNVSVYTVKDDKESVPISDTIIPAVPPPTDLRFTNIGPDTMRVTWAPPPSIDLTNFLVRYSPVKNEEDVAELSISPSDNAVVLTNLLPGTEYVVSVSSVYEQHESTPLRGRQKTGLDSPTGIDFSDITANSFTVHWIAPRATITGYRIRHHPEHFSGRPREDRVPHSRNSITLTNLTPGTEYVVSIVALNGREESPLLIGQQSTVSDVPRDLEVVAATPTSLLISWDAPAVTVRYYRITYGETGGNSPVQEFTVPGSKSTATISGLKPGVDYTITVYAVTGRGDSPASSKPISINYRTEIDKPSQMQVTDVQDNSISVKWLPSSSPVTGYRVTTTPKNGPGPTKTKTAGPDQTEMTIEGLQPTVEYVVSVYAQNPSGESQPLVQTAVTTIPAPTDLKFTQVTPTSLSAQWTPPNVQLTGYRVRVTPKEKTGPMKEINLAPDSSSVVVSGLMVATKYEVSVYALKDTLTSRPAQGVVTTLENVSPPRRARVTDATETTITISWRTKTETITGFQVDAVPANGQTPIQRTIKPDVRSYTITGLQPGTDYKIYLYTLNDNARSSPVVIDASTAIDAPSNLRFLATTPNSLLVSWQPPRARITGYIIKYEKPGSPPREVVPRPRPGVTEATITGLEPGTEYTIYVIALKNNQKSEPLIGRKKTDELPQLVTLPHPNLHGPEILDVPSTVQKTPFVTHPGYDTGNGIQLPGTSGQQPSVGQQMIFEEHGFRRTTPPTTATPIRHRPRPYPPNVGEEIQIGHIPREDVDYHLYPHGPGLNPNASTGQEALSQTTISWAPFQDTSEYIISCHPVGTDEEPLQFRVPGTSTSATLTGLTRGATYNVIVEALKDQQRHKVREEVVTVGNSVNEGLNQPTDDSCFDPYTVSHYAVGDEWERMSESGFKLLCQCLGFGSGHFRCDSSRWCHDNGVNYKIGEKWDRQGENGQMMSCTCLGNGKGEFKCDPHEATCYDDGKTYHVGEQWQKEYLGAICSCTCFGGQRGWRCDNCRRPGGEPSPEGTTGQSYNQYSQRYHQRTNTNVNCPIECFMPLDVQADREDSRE
The target of series [7] is T5, Boc-Glu(OBzl)-Ala-Arg-MCA.
T5 chain: EAR

A further series has as its target T6, Pro-Phe-Arg-MCA.
T6 chain: PFR

Experimental findings from patent US20080213836 are described below.

Sequence of human single-chain tPA fusion protein with N-terminal His-tag/EP-cleavage site, P00750 (P00750 whole entry, looked up, the tested form may be a part): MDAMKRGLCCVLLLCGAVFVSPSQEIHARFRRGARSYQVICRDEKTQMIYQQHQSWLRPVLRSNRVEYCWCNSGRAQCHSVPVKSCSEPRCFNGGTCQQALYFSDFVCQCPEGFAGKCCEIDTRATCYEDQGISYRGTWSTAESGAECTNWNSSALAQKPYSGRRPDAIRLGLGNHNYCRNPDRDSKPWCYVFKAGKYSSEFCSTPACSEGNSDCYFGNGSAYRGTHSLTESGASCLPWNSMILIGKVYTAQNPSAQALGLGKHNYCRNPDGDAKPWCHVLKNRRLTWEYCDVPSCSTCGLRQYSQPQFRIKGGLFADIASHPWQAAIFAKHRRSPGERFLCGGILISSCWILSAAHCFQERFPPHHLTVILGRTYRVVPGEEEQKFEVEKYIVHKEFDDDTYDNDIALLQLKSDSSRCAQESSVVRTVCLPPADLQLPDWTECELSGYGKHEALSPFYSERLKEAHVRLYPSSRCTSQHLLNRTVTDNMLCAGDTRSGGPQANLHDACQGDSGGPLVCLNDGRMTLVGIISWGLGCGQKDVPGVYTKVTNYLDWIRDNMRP

B1: Bovine EP serine protease (New England Biolabs) (protein)
chain: IVGGSDSREGAWPWVVALYFDDQQVCGASLVSRDWLVSAAHCVYGRNMEPSKWKAVLGLHMASNLTSPQIETRLIDQIVINPHYNKRRKNNDIAMMHLEMKVNYTDYIQPICLPEENQVFPPGRICSIAGWGALIYQGSTADVLQEADVPLLSNEKCQQQMPEYNITENMVCAGYEAGGVDSCQGDSGGPLMCQENNRWLLAGVTSFGYQCALPNRPGVYARVPRFTEWIQSFLH
Broadly, the Km is the substrate concentration at which the rate is half of its maximum. The kcat is the number of substrate molecules converted per active site and unit of time at saturation. As to B1, the results for the “cleavage of the fusion protein (SDS-PAGE)” value in series [1] and in series [3] were “the fusion protein was extensively digested by mammalian EP serine proteases” and “the mammalian enzymes not only produced the two expected polypeptides but also further degraded the products”, respectively. Moreover, the “nonspecific proteolytic activity (SDS-PAGE)” value in [2] is reported as “both of which were degraded noticeably by mammalian EP proteases”; in the series with human fibrinogen, P02671, “both of which were degraded noticeably by mammalian EP proteases”. For the same protein, the “proteolytic activity (gelatin zymography)” value with gelatin is on record as “these substrates were detectably hydrolyzed by the mammalian proteases”. For the same protein, the Km amounted to 0.4 mM with Z-Phe-Arg-MCA, 0.5 mM in series [5], 0.4 mM in series [7] and 2.9 mM with Pro-Phe-Arg-MCA. For the same protein, the kcat with Z-Phe-Arg-MCA amounted to 600 min⁻¹; in series [5] it was 1500 min⁻¹; in series [7] it was 570 min⁻¹; in the series with Pro-Phe-Arg-MCA, 1300 min⁻¹. Also, the kcat/Km (mM^-1 · min^-1) in the series with Z-Phe-Arg-MCA was found to be 1500; in [5] it was 3000; in series [7], 1400; with Pro-Phe-Arg-MCA, 450. The “cleavage of the fusion protein (SDS-PAGE/Western blot)” value in series [4] is “but not with mammalian ones, showed two polypeptides (53- and 55-kDa)”. The “proteolytic activity (SDS-PAGE)” value (with mouse laminin; in series [6]) was “these substrates were detectably hydrolyzed by the mammalian proteases” throughout.

B2: Bovine EP serine protease (Novagen) (protein)
chain: IVGGSDSREGAWPWVVALYFDDQQVCGASLVSRDWLVSAAHCVYGRNMEPSKWKAVLGLHMASNLTSPQIETRLIDQIVINPHYNKRRKNNDIAMMHLEMKVNYTDYIQPICLPEENQVFPPGRICSIAGWGALIYQGSTADVLQEADVPLLSNEKCQQQMPEYNITENMVCAGYEAGGVDSCQGDSGGPLMCQENNRWLLAGVTSFGYQCALPNRPGVYARVPRFTEWIQSFLH
As for B2, the figures for the “cleavage of the fusion protein (SDS-PAGE)” value in series [1] and in series [3] were “the fusion protein was extensively digested by mammalian EP serine proteases” and “the mammalian enzymes not only produced the two expected polypeptides but also further degraded the products”, respectively. For the same protein, the “nonspecific proteolytic activity (SDS-PAGE)” value in series [2] is reported as “both of which were degraded noticeably by mammalian EP proteases”; with human fibrinogen, P02671, “both of which were degraded noticeably by mammalian EP proteases”. Also, the “proteolytic activity (gelatin zymography)” value in the series with gelatin is recorded as “these substrates were detectably hydrolyzed by the mammalian proteases”. Also, the Km was 0.5 mM in the series with Z-Phe-Arg-MCA, 0.8 mM in series [5], 0.5 mM in series [7] and 4 mM with Pro-Phe-Arg-MCA. Moreover, the kcat with Z-Phe-Arg-MCA is 720 min⁻¹; in [5], 770 min⁻¹; in series [7], 740 min⁻¹; with Pro-Phe-Arg-MCA, 790 min⁻¹. For the same protein, the kcat/Km (mM^-1 · min^-1) with Z-Phe-Arg-MCA was found to be 1400; in series [5], 960; in series [7], 1500; with Pro-Phe-Arg-MCA it was 200. For the same protein, in [4], the “cleavage of the fusion protein (SDS-PAGE/Western blot)” value is “but not with mammalian ones, showed two polypeptides (53- and 55-kDa)”. Moreover, the “proteolytic activity (SDS-PAGE)” value (in the series with mouse laminin; in series [6]) was “these substrates were detectably hydrolyzed by the mammalian proteases” in each case.
